# Test results taken from paper doi:10.1101/2020.07.08.161463 (bioRxiv, 2020).
# Biological target: the molecule itself
# Assay: SEC-MALS
protein,measurement,value
G domain of SEPT7 (domain or fragment) YRKSVKRGFEFTLMVVGESGLGKSTLINSLFLTDLYSPEYPGPSHRIKKTVQVEQSKVLIKEGGVQLLLTIVDTPGFGDAVDNSNCWQPVIDYIDSKFEDYLNAESRVNRRQMPDNRVQCCLYFIAPSGHGLKPLDIEFMKRLHEKVNIIPLIAKADTLTPEECQQFKKQIMKEIQEHKIKIYEFPETDDEEENKLVKKIKDRLPLAVVGSNTIIEVNGKRVRGRQYPWGVAEVENGEHCDFTILRNMLIRTHMQDLKDVTNNVHYENYRSRKLAAVT,stoichiometry N,2
